In US20130086703:

Molecular target: T1, human Keratin 17
T1 chain: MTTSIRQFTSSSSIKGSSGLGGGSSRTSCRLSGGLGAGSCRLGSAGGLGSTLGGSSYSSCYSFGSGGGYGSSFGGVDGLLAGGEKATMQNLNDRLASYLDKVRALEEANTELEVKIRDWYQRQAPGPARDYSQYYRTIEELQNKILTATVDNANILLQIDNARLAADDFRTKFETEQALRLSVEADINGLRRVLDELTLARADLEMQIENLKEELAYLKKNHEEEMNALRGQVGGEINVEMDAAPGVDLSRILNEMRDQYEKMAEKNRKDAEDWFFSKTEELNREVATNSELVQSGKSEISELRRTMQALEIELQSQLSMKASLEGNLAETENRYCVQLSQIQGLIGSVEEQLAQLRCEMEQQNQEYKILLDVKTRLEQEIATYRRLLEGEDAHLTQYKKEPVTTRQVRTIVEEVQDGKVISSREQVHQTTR

B1: RgpB (protein)
chain: YTPVEEKENGRMIVIVPKKYEEDIEDFVDWKNQRGLRTEVKVAEDIASPVTANAIQQFVKQEYEKEGNDLTYVLLVGDHKDIPAKITPGIKSDQVYGQIVGNDHYNEVFIGRFSCESKEDLKTQIDRTIHYERNITTEDKWLGQALCIASAEGGPSADNGESDIQHENIIANLLTQYGYTKIIKCYDPGVTPKNIIDAFNGGISLANYTGHGSETAWGTSHFGTTHVKQLTNSNQLPFIFDVACVNGDFLYNVPCFAEALMRAQKDGKPTGTVAIIASTINQSWASPMRGQDEMNEILCEKHPNNIKRTFGGVTMNGMFAMVEKYKKDGEKMLDTWTVFGDPSLLVRTLVPTKMQVTAPANISASAQTFEVACDYNGAIATLSDDGDMVGTAIVKDGKAIIKLNESIADETNLTLTVVGYNKVTVIKDVKVEG
**Q.** Which “enzymatic degradation products detected by mass spectrometry (on spot profiling)” value does the source give for B1 here?
**A.** peptides consisting of the amino acid sequences shown by SEQ ID NOs: 6-10 (peptides 8-12) were newly identified as RgpB degradation products of human Keratin 17
